This data set deals with dPsCas13b-133FSY (in HEK293T) A133FSY (fluorosulfate-L-tyrosine) (Prevotella sp. P5-125). Nature of the data set: pulldown. As to conditions: RIP RT-qPCR in HEK293T; no enrichment without crRNA.

In the case of crACTB guide ; ACTB mRNA, the binding signal (fold over dPsCas13b-WT) is 4.

The record behind these values is patent US20240262791.
